Patent US20250026846A1 (JCR PHARMACEUTICALS, published 2025)

B1: recombinant monkey TfR (r monkey TfR: Sino Biological Inc.), crab-eating monkey TfR extracellular region with a histidine tag at the N-terminus (receptor)
chain: CKGVEPKTECERLAGTESPAREEPEEDFPAAPRLYWDDLKRKLSEKLDTTDFTSTIKLLNENLYVPREAGSQKDENLALYIENQFREFKLSKVWRDQHFVKIQVKDSAQNSVIIVDKNGGLVYLVENPGGYVAYSKAATVTGKLVHANFGTKKDFEDLDSPVNGSIVIVRAGKITFAEKVANAESLNAIGVLIYMDQTKFPIVKADLSFFGHAHLGTGDPYTPGFPSFNHTQFPPSQSSGLPNIPVQTISRAAAEKLFGNMEGDCPSDWKTDSTCKMVTSENKSVKLTVSNVLKETKILNIFGVIKGFVEPDHYVVVGAQRDAWGPGAAKSSVGTALLLKLAQMFSDMVLKDGFQPSRSIIFASWSAGDFGSVGATEWLEGYLSSLHLKAFTYINLDKAVLGTSNFKVSASPLLYTLIEKTMQDVKHPVTGRSLYQDSNWASKVEKLTLDNAAFPFLAYSGIPAVSFCFCEDTDYPYLGTTMDTYKELVERIPELNKVARAAAEVAGQFVIKLTHDTELNLDYERYNSQLLLFLRDLNQYRADVKEMGLSLQWLYSARGDFFRATSRLTTDFRNAEKRDKFVMKKLNDRVMRVEYYFLSPYVSPKESPFRHVFWGSGSHTLSALLESLKLRRQNNSAFNETLFRNQLALATWTIQGAANALSGDVWDIDNEF
notes: Bought from Sino Biological; also called r monkey TfR-ECD (Histag); not shown: histidine tag at the N-terminus
B2: humanized anti-hTfR antibody No. 3N (antibody, human IgG1, kappa, V domains shown)
VH: EVQLVQSGAEVKKPGESLKISCKGSGYSFMNYWLGWVRQMPGKGLEWMGDIYPGGDYPTYSEKFKVQVTISADKSISTAYLQLSSLKASDTAMYYCARSGNYDEVAYWGQGTLVTVSS
VL: DIVMTQTPLSLSVTPGQPASISCRSSQSLVHSNGNTYLHWYLQKPGQSPQLLIYKVSNRFSGVPDRFSGSGSGTDFTLKISRVEAEDVGVYYCSQSTHVPWTFGQGTKVEIKR
notes: IgG1; also called Humanized anti-hTfR antibody 3N

Tests used:
[1] = target: hGAA-anti-hTfR antibody 3N (IgG4); experiment: BLI (Octet RED96), His-tagged TfR ECD on Ni-NTA sensor
Experimental: (§1) Each of the sample solutions prepared above by 2-fold dilution steps was added, 200 μL/well, to a 96-well plate, black (Greiner Bio-One Inc.). Each of the r human TfR-ECD (Histag) solution and the r monkey TfR-ECD (Histag) solutions prepared above was added, 200 μL/well, to predetermined wells. To respective wells for baseline, dissociation and washing were added HBS-P+, 200 μL/well. To wells for regeneration were added 10 mM Glycine-HCl (pH 1.7), 200 μL/well. To wells for activation was added 0.5 mM NiCl₂ solution, 200 μL/well. The plate and biosensor (Biosensor/Ni-NTA: ForteBio Inc., a division of Pall Corporation) were set in the prescribed positions of Octet RED96.
(§2) The measurement was performed at 25 to 30° C.
(§3) The affinity of the hGAA-anti-hTfR antibody 3N (IgG4) obtained in Example 26 to human TfR and monkey TfR was measured in accordance with the method described in Example 23.

[2] = target: T1, Fab GS-GAA (fusion protein between Fab anti-hTfR antibody 3N and hGAA); experiment: as above
T1 construct: also called Fab GS3-GAA; Fab-GS3-GAA
Experimental: as §1, §2, §3

[3] = target: T1, Fab GS-GAA (fusion protein between Fab …); experiment: BLI (Octet RED96), His-tagged TfR ECD on Ni-NTA sensor; Table 17-2, Fab GS-GAA
[4] = target: T1, Fab GS-GAA (fusion protein between Fab …); experiment: BLI (Octet RED96), His-tagged TfR ECD on Ni-NTA sensor; Table 21, Fab-GS3-GAA
[5] = target: T2, recombinant human TfR (r human TfR: Sino Biological Inc.), hTfR extracellular region with a histidine tag at … (human, UniProt P02786 89-760); experiment: BLI (Octet RED96), His-tagged TfR ECD on Ni-NTA sensor
T2 construct: Bought from Sino Biological; also called r human TfR-ECD (Histag); recombinant hTfR; not shown: histidine tag at the N-terminus
Experimental: as §1, §2
(§4) The affinity of humanized anti-hTfR antibody No. 3 obtained in Example 13 and humanized anti-hTfR antibody No. 3N obtained in Example 17 to human TfR and human TfR was measured by the method described in Example 7. […] Besides, the measurement indicating the affinity of humanized anti-hTfR antibody No. 3 to human TfR differed from that shown in Table 6, but is an experimental error.

[6] = target: B1; experiment: BLI (Octet RED96)
[7] = target: B1; experiment: BLI (Octet RED96), His-tagged TfR ECD on Ni-NTA sensor
Experimental: as §1, §2
as §4, with “TfR and monkey TfR was” for “TfR and human TfR was”, “3 to monkey TfR differed” for “3 to human TfR differed”, “in Table 7, but is” for “in Table 6, but is”

T1 sequence (light, as listed by the source, chain 1 of 2): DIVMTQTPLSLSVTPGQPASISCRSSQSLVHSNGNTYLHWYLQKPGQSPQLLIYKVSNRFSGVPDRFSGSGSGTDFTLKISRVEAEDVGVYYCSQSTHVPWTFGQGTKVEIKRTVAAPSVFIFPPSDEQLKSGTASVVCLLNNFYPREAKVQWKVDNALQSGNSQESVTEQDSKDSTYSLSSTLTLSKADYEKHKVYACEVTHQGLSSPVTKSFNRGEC
T1 sequence (heavy, as listed by the source, chain 2 of 2): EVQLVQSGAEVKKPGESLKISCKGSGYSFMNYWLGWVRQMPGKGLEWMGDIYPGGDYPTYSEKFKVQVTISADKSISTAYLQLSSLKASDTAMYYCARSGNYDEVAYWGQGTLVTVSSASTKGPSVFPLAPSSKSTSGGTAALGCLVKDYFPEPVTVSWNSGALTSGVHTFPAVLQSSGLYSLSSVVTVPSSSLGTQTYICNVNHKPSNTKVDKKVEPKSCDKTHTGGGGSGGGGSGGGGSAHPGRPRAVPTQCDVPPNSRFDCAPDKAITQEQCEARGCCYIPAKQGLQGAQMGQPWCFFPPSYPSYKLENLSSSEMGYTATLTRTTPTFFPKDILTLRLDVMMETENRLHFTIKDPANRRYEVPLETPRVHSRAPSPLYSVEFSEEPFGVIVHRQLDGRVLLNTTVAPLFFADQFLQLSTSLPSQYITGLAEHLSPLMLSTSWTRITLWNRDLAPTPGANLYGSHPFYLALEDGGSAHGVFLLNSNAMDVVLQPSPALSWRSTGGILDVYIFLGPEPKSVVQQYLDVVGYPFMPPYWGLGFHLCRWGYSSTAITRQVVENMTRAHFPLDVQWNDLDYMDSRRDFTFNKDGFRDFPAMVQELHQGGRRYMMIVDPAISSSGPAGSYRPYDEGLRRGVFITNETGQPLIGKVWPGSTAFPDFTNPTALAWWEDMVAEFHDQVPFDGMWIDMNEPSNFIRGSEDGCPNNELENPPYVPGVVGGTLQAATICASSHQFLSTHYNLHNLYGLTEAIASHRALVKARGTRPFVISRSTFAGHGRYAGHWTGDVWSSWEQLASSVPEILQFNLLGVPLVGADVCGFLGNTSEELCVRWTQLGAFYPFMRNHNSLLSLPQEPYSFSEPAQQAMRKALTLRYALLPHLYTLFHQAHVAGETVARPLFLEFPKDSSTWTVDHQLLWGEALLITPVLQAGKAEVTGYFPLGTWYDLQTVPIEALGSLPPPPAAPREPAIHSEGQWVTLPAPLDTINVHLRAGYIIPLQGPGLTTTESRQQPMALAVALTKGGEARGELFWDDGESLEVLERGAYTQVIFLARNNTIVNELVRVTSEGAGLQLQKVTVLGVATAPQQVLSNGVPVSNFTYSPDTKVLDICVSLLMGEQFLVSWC
Chain of hGAA-anti-hTfR antibody 3N (IgG4) (light, as listed by the source, chain 1 of 2): as the sequence (light, as listed by the source, chain 1 of 2) above
Chain of hGAA-anti-hTfR antibody 3N (IgG4) (heavy, as listed by the source, chain 2 of 2): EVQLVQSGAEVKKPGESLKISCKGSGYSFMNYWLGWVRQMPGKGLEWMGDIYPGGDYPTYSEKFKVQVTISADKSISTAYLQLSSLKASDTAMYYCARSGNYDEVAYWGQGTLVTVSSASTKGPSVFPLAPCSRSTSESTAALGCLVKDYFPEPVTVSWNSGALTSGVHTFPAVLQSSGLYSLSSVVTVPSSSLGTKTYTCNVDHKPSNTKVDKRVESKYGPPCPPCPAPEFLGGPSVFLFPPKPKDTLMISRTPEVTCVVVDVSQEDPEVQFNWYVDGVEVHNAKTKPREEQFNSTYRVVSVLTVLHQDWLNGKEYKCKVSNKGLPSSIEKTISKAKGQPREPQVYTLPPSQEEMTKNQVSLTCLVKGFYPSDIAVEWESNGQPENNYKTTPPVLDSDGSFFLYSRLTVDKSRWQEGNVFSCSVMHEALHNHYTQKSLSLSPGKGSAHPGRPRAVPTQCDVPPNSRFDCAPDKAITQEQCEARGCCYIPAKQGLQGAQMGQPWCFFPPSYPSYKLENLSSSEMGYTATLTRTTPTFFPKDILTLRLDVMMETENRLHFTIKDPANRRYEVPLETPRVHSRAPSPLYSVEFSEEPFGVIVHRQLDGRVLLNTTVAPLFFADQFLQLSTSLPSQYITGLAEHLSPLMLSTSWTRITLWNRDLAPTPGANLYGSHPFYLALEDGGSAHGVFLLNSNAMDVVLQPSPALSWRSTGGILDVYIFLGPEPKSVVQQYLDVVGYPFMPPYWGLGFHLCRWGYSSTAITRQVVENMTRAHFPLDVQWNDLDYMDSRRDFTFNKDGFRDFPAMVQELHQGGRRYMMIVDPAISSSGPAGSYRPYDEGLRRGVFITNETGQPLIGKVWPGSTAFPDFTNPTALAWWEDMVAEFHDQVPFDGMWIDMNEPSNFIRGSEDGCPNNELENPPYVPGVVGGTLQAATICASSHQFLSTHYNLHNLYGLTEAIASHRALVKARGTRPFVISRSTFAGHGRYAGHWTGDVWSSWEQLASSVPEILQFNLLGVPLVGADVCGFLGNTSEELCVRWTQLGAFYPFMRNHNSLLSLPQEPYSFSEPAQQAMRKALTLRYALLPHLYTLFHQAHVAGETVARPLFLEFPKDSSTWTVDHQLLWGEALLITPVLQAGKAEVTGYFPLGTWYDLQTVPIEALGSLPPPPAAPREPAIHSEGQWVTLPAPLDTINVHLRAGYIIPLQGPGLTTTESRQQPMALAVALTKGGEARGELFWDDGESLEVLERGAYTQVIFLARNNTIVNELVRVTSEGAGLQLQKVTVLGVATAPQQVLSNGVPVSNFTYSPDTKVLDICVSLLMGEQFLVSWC

Binder	Kd [1] [nM]	koff [1] [s⁻¹]	kon [1] [M⁻¹ s⁻¹]	koff [2] [s⁻¹]	kon [2] [M⁻¹ s⁻¹]	Kd [3] [nM]	Kd [4] [nM]	koff [4] [s⁻¹]	kon [4] [M⁻¹ s⁻¹]	Kd [5] [nM]	koff [5] [s⁻¹]	kon [5] [M⁻¹ s⁻¹]	KD relative to that of humanized anti-hTfR antibody No. 3 [6] [fold]	fold affinity against humanized anti-hTfR antibody No. 3 [6] [fold]	Kd [7] [nM]	koff [7] [s⁻¹]	kon [7] [M⁻¹ s⁻¹]
B1	< 0.001	< 1e-07	203000	0.00501	329000	15.2	30.5	0.0145	473000	–	–	–	–	–	–	–	–
B2	–	–	–	–	–	–	–	–	–	< 0.001	< 1e-07	784000	~0.033	~30	0.0507	1.96e-05	386000
